Consider one molecule from US20220403048A1, “BINDING MOLECULES TO ARGINASE II [ARG2]” (Cancer Research Technology Limited, priority 2019, published 2022).

One experiment deals with T1, trimeric human ARG2 (Homo sapiens, UniProt P78540).
T1 construct: human ARG2 (aa23-354); His10 (C); made in house; host or cells: E. coli BL21 (DE3)
T1 sequence (P78540 23-354): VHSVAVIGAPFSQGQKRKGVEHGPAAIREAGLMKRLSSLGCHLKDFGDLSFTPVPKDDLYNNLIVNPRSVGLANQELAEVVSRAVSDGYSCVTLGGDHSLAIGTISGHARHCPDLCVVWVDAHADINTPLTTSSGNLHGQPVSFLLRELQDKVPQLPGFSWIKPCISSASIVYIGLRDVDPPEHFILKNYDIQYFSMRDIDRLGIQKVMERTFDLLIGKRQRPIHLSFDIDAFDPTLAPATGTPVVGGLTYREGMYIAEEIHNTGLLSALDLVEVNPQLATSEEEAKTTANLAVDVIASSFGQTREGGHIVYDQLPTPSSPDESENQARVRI
In words: Human trimeric ARG2 enzyme inhibition assay (urea production). It counts as biochemical. The conditions noted are these: clones in scFv format, FIG. 9; read-out: Trimeric human ARG2 EIA IC50. The procedure:
Unpurified anti-ARG2 scFv fragments from periplasmic preparations were screened in an ARG2 enzyme inhibition assay using a Pherastar plate reader (BMG Labtech, Germany). In this assay, the ability of unpurified scFv to inhibit the enzymatic activity of trimeric ARG2 was determined by measuring the production of urea, the product of L-arginine turnover by ARG2.
Selection outputs were screened as unpurified bacterial periplasmic extracts containing scFv, prepared in 200 mM TES buffer pH 7.4, 0.5 mM EDTA and 0.5 M sucrose. 10 μl of unpurified scFv were added to a Greiner Bio-One® 384 well assay plate (Greiner Bio-one, UK; cat: 781901). This was followed by the addition of 5 μl of 1.6 μg/ml trimeric human ARG2 that had been diluted in 40 mM MnCl2, 100 mM tris-HCl, pH7.4 (4× enzyme buffer). […]
Urea was detected by the simultaneous addition of equal volumes of O-Phthaldialdehyde (1.5 mM O-Phthaldialdehyde, 7% H2SO4, 0.03% Brij L23) and N-(1-Napthyl)ethylenediamine (1.66 mM N-(1-Napthyl)ethylenediamine, 81 mM Boric acid, 21% H2SO4, 0.03% Brij L23) followed by an 18 minute incubation at room temperature before the colorimetric product was quantified on the Pherastar by measuring absorbance at 505 nm. […]
Data were analysed by calculating % maximum (max) control for each sample using the 505 nm absorbance data. % max control was determined according to equation 2. […]
IC50 values were determined by testing a dilution series of the purified scFv, prepared in TBS, in the ARG2 enzyme inhibition assay described in section 1.5, substituting the unpurified scFv periplasmic preparation with the purified scFv.
Background control wells were defined for each plate by the omission of substrate. […] Data were analysed by calculating % maximum (max) control for each sample. % max control was determined according to equation 1 detailed in section 1.5. […]
Data were again analysed by calculating % Max control values for each sample. […]

The target of experiment [1] is T2, biotinylated recombinant human trimeric ARG2 enzyme (Homo sapiens, UniProt P78540, E275H/R327K).
T2 construct: His10 (after a GGG linker) (C); made in house; host or cells: E. coli BL21 (DE3)
T2 sequence (P78540 with tags, fused parts or gaps E275H/R327K): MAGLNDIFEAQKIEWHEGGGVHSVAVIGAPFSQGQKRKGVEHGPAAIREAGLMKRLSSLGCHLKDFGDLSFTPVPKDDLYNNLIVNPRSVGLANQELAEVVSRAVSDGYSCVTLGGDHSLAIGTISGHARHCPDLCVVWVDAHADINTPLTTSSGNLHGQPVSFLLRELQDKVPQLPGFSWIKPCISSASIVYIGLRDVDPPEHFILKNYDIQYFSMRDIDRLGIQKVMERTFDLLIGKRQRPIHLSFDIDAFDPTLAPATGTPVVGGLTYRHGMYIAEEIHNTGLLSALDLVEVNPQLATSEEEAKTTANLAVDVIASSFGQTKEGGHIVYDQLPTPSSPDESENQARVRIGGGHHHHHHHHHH
The experiment can be described thus: C0020187 IgG epitope competition HTRF assay. It counts as binding. The following applies: clones in scFv format, FIG. 8; read-out: 18° IgG epitope competition assay IC50. An excerpt: Two thousand and twenty four scFv chosen at random from selection rounds 3 and 4 of the targeted mutagenesis approach described in section 2.2, 2.3 and 2.4 were expressed in E. coli to produce unpurified periplasmic scFv. Those scFv capable of competing with C0020187 IgG for binding to recombinant human trimeric ARG2 enzyme (i.e., those scFv that bind at or near the epitope bound by C0020187 IgG) were elucidated in a competition format assay, using the HTRF™ platform. […]
A ‘Maximum’ binding signal was determined by analysing the binding of C0020187 IgG to biotinylated recombinant human trimeric ARG2 enzyme in the absence of competitor scFv. […] Finally, a ‘Background’ signal was determined by analysing the fluorescence generated in the absence of C0020187 IgG.
Unpurified periplasmic scFv were supplied in sample buffer consisting of 200 mM tris base, pH 7.4, 0.5 mM EDTA, and 0.5 M sucrose. […] Assay plates were sealed and then incubated overnight at room temperature in the dark, prior to measuring time-resolved fluorescence at 620 and 665 nm emission wavelengths on a fluorescence plate reader.
Data were analysed by calculating % Delta F values for each sample. % Delta F was determined according to equation 1. […]
Data were again analysed by calculating the % Delta F and % Control binding values for each sample. […]
(Time-resolved FRET reads energy transfer from a long-lived donor to a nearby acceptor.)

B1: C0021142: anti-ARG2 antibody, VH SEQ ID NO: 232, VL SEQ ID NO: 237 (antibody, listed as Homo sapiens, V domains shown)
VH: EVQLLESGGGLVQPGGSLRLSCAASGFTFSSYAMSWVRQAPGKGLEWVSAHTHSPGSTYYADSVKGRFTISRDNSKNTLYLQMNSLRAEDTAVYYCARLRADLGLYMDLWGRGTLVTVSS
VL: QSVLTQPPSVSAAPGQKVTISCSGSSSNIGNHYVSWYQQLPGTAPKLLIYDNSERPSGVPDRFSGSKSGTSATLGITGLQTGDEADYYCGTWDSSLSALVFGGGTKLTVL
modifications: C0021142
What is called IC50 is the concentration that inhibits the measured activity by half. On to B1, for which the IC50 with trimeric human ARG2 was 0.0976 µM; in experiment [1], 0.0578 µM.
